Data from US12208130B2, “Treatment of women affected with polycystic ovary syndrome” (INSTITUT NATIONAL DE LA SANTE ET DE LA RECHERCHE MEDICALE …, priority 2017, dated 2025).
Where a SMILES comes first, the peptide text is derived from it. [ ]: non-standard residue; d: D form. dPhe(4-Cl) = N[C@H](Cc1ccc(Cl)cc1)C(=O)O; d2Nal = N[C@H](Cc1ccc2ccccc2c1)C(=O)O; dCit = NC(=O)NCCC[C@@H](N)C(=O)O; d3Pal = N[C@H](Cc1cccnc1)C(=O)O

B1: proAMH: AMH proprotein (Origene Technologies, Cat # TP308397), injected prenatally 0.12 mg/Kg/d (protein, UniProt P03971 25-560, looked up)
pro-form: LRAEEPAVGTSGLIFREDLDWPPGSPQEPLCLVALGGDSNGSSSPLRVVGALSAYEQAFLGAVQRARWGPRDLATFGVCNTGDRQAALPSLRRLGAWLRDPGGQRLVVLHLEEVTWEPTPSLRFQEPPPGGAGPPELALLVLYPGPGPEVTVTRAGLPGAQSLCPSRDTRYLVLAVDRPAGAWRGSGLALTLQPRGEDSRLSTARLQALLFGDDHRCFTRMTPALLLLPRSEPAPLPAHGQLDTVPFPPPRPSAELEESPPSADPFLETLTRLVRALRVPPARASAPRLALDPDALAGFPQGLVNLSDPAALERLLDGEEPLLLLLRPTAATTGDPAPLHDPTSAPWATALARRVAAELQAAAAELRSLPGLPPATAPLLARLLALCPGGPGGLGDPLRALLLLKALQGLRVEWRGRDPRGPGRAQRSAGATAADGPCALRELSVDLRAERSVLIPETYQANNCQGVCGWPQSDRNPRYGNHVVLLLKMQVRGAALARPPCCVPTAYAGKLLISLSEERISAHHVPNMVATECGCR
modifications: pro-form
notes: AMH proprotein (Origene Technologies, Cat # TP308397), injected prenatally 0.12 mg/Kg/d

System: C57BL6/J (B6) dams and their female offspring
Experiment: Prenatal treatment of pregnant dams: phenotype, estrous cycle, ovarian histology and fertility of female offspring
Type: in vivo, mouse
Procedure: FIGS. 2A-2E-3. Prenatal AMH treatment disrupts estrous cyclicity, ovarian morphology and fertility in adult offspring. (FIG. 2A) Schematic of experimental design whereby pregnant dams were subjected to different treatments by intraperitoneal (i.p.) injections during the late gestational period (embryonic days (E) 16.5-E18.5). Pregnant dams were treated with i.p. injections of four different treatments, which are designated as the following: Control, PBS, 0.01M, pH 7.4 (n=14); Prenatal anti-Müillerian hormone-treated (PAMH), PBS containing human recombinant AMH (n=19); Prenatal AMH+Cetrorelix (PAMH+GnRH antag), PBS containing both human recombinant AMH and cetrorelix acetate (n=10); Cetrorelix-treated (GnRH antag), PBS containing cetrorelix acetate (n=4). (FIG. 2B) Quantitative analysis of ovarian cyclicity in adult (P60-P90) offspring mice (control, n=14; PAMH, n=19; PAMH+GnRH antag, n=10; GnRH antag, n=4). Vaginal cytology was assessed for 16 days. […] Bars from left to right in each group: Control, PAMH, PAMH+GnRH antag, GnRH antag. (FIGS. 2C-1, 2C-2, 2C-3) Representation of estrous cyclicity in one female mouse of each of the four treatments during 16 consecutive days (4-cycles). (FIGS. 2D-1, 2D-2, 2D-3) Quantitative analysis of corpora lutea, late antral follicles and atretic follicles in the ovaries of Control (n=7, age: P90) and PAMH mice (n=8, age: P90). Data are represented as mean±s.e.m (two-tailed Student's t-test; corpora lutea, t(13)=4.879, **P<0.001; late antral follicles, t(13)=4.637, **P<0.001; atretic follicles, t(13)=0.226, P=0.82). Data were combined from two independent experiments. In FIGS. 2D-1, 2D-2 and 2D-3: left bar: Control; right bar: PAMH.). (FIGS. 2E-1, 2E-2, 2E-3) Fertility tests of the adult offspring mice (P90). Bars from left to right in each FIGS. 2E-1, 2E-2 and 2E-3: Control, PAMH, PAMH+GnRH antag, GnRH antag Matings were performed for 90 days. Control females were paired with control males (n=7), PAMH females were paired with PAMH males (n=7), PAMH+GnRH antag females were paired with PAMH+GnRH antag males (n=6), and GnRH antag females were paired with GnRH antag males (n=4). […] Data are represented as mean±s.e.m. One-way ANOVA and Tukey's multiple comparison post hoc test: time to first litter, F(3,20)=14.73, ***P<0.0001; fertility index, F(3,20)=7.069, *P<0.05, **P<0.005; number of pups/litter, F(3,20)=30.71, ***P<0.0001.
FIGS. 8A-8D. Prenatal AMH treatment disrupts puberty onset and estrous cyclicity cyclicity but not body mass of the offspring. (FIGS. 8A, 8B, 8C, 8D) Parameters of pubertal onset and estrous cyclicity in female control (n=14), PAMH (n=17-19), PAMH+GnRH antag (n=10), and GnRH antag (n=4) animals. (FIG. 8A) Age of vaginal opening (VO) and (FIG. 8B) Age of first estrus were compared using a one-way ANOVA and Tukey's multiple comparison post hoc analyses, respectively: F (3, 43)=48.37, *** P<0.0001; F (3, 41)=112.6, *** P<0.0001. Bars from left to right in each FIGS. 8A, 8B: Control, PAMH, PAMH+GnRH antag, GnRH antag (FIG. 8C) Percentage (%) of completed estrous cycles over 16 days (4 cycles) was analyzed using a non-parametric Kruskal-Wallis test followed by a Dunn's multiple comparison post-hoc analysis: Kruskal-Wallis statistic=35.55, *P<0.05, **P<0.005, ***P<0.0001. Bars from left to right in each FIG. 8C: Control, PAMH, PAMH+GnRH antag, GnRH antag (FIG. 8D) Body mass (gr) was measured in female offspring at each post-natal age (P) until P60 and compared using a one-way ANOVA and Tukey's multiple comparison post hoc analyses for each age and treatment: P30, F (3, 43)=1.338, P=0.2747; P35, F (3, 43)=0.4268, P=0.7348; P40, F (3, 43)=0.4171, P=0.7416; P50, F (3, 27)=2.158, P=0.1162; P60, F (3, 27)=5.45, P=0.0046; * P<0.05, **, P<0.005. Asterisks represent significant differences (mean±s.e.m): *P<0.05, **P<0.005, ***, P<0.0001. Bars from left to right in FIG. 8D: Control, PAMH, PAMH+GnRH antag, GnRH antag. […]

[1] = dams i.p. AMH 0.12 mg/Kg/d + cetrorelix acetate 0.5 mg/Kg E16.5-E18.5, female offspring
[2] = dams i.p. 0.12 mg/Kg/d E16.5-E18.5, female offspring vs control

Molecule | estrous cyclicity and fertility (GnRH antagonist alone, dams i.p. 0.5 mg/Kg/d E16.5-E18.5, offspring) | longer ano-genital distance phenotype of PAMH offspring [1] | oligo-anovulation and subfertility (ovulatory and fertility defects) of PAMH offspring [1] | oligo-anovulation and subfertility (ovulatory and fertility defects) of PAMH offspring (dams i.p. AMH 0.12 mg/Kg/d + cetrorelix acetate 0.5 mg/Kg E16.5-E18.5, female offspring, listed as GnRH antagonist) | estrous cyclicity (dams i.p. 0.12 mg/Kg/d E16.5-E18.5, adult female offspring vs control) | ano-genital distance (dams i.p. 0.12 mg/Kg/d E16.5-E18.5, female offspring P30-P60 vs control) | body weight of offspring [2] | puberty onset (first estrus) [2] | vaginal opening [2]
CC(=O)N[C@H](Cc1ccc2ccccc2c1)C(=O)N[C@H](Cc1ccc(Cl)cc1)C(=O)N[C@H](Cc1cccnc1)C(=O)N[C@@H](CO)C(=O)N[C@@H](Cc1ccc(O)cc1)C(=O)N[C@H](CCCNC(N)=O)C(=O)N[C@@H](CC(C)C)C(=O)N[C@@H](CCCNC(=N)N)C(=O)N1CCC[C@H]1C(=O)N[C@H](C)C(N)=O [Cetrorelix acetate, Ac-D-2Nal-D-Phe(4-Cl)-D-3Pal-Ser-Tyr-D-Cit-Leu-Arg-Pro-D-Ala-NH2] (Ac-[d2Nal][dPhe(4-Cl)][d3Pal]SY[dCit]LRP[dA]-NH2) | no effect | completely rescued | totally prevented | prevented the appearance of the ovulatory and fertility defects | – | – | – | – | –
B1 | – | – | – | – | disrupted estrous cyclicity | significantly longer ano-genital distance | no difference in body weight | delayed puberty onset | delayed vaginal opening
